According to patent US20120252729A1, “PTH-CONTAINING THERAPEUTIC/PROPHYLACTIC AGENT FOR OSTEOPOROSIS, CHARACTERIZED IN THAT PTH IS ADMINISTERED ONCE A WEEK IN A UNIT DOSE OF 100 TO 200 UNITS” (ASAHI KASEI PHARMA CORPORATION, priority 2009, published 2012):

Experiments:
[1] = in vivo
Description: The Lumbar spine bone mineral density and occurrence of bone fractures were checked as bone assessments. For the Lumbar spine bone mineral density, the bone density of the second to fourth lumbar spine was measured at the start and every six months thereafter using dual-energy x-ray absorptiometry (DXA). For the frequency of bone fractures, x-rays were taken from the front and side of the fourth thoracic to the fifth lumbar spine at the start and every six months thereafter, and new vertebral fractures were assessed by comparison of the roentgen films at the start and at each point in time thereafter using the method of Genant et al. (Non-patent Reference 14) as a reference. In locations other than the vertebrae, fractures were evaluated by checking by roentgen films. Blood samples were also taken from all patients at the beginning and during administration, and the general laboratory test values, including the calcium concentration, were measured. The administration period in high-risk patients (DXA and new vertebral fractures were assessed collectively at the center; fractures of other than vertebrae were assessed by the investigator based on the roentgen films) was 85.1±20.8 weeks in the 5 unit group and 83.7±19.8 weeks in the 100 unit group. […] The administration period in low-risk patients was 72.7±19.4 weeks in the 5 unit group and 88.3±21.3 weeks in the 100 unit group.

[2] = in vivo; remark: listed apart in the source
Description: The ratio of the urinary calcium value/urinary creatine value was compared before beginning administration and in the weeks of observation. The urinary calcium was measured at the start, after 12 weeks, after 24 weeks, after 48 weeks, and after 72 weeks.

[3] = system: osteoporosis patients having normal renal function, mild or moderate renal dysfunction; settings: in vivo
[4] = system: high-risk patients diagnosed with primary osteoporosis; experiment: Working Example 2: bone density of lumbar spine and femur by DXA; format: in vivo, human; settings: 200 units weekly; for Change in lumbar vertebral density (%), median: after 72 W

teriparatide acetate
Hypercalcemia during the administration period [1]: did not cause hypercalcemia at either dose
Average percentage change in the urinary calcium value [2]: 3.2%
Median percentage change in the urinary calcium value [2]: −14.7%
Side effects Yes (%) [3]: 36.8%
Side effects, point estimate of the difference [3]: 29.1
Side effects: No (%) [3]: 55.1%
Side effects: No, No. of cases [3]: 27
Side effects: Yes (%) [3]: 44.9%
Side effects: Yes, No. of cases [3]: 22
Change in lumbar vertebral density (%), median ([4]; mild impairment (≧50-<80)): 6.6%
Change in lumbar vertebral density (%), median ([4]; normal (≧80)): 8.0%
Change in lumbar vertebral density (%), mean ([4]; normal (≧80), final): 7.5%
